Target: Complement C1q (Homo sapiens) (UniProt P02745+P02746+P02747)
Assay: filter
Settings: 2'-NH2 C and U; MgPBS, 37 C; starting pool

Complement C1q (Homo sapiens), sequence (P02745 23-245, chain 1 of 3): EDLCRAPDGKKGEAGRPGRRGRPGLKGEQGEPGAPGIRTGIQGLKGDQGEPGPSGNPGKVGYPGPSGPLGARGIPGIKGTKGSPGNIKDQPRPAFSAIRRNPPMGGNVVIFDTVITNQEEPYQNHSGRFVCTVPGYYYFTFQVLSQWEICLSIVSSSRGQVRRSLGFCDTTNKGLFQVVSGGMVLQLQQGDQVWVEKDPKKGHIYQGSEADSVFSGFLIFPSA
Complement C1q (Homo sapiens), sequence (P02746 28-253, chain 2 of 3): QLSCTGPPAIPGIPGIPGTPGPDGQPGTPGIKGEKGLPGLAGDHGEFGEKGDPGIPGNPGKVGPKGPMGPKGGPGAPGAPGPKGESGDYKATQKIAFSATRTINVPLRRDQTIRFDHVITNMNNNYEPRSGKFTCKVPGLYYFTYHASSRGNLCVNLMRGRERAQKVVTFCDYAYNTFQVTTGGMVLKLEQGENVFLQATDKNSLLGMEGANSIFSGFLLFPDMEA
Complement C1q (Homo sapiens), sequence (P02747 29-245, chain 3 of 3): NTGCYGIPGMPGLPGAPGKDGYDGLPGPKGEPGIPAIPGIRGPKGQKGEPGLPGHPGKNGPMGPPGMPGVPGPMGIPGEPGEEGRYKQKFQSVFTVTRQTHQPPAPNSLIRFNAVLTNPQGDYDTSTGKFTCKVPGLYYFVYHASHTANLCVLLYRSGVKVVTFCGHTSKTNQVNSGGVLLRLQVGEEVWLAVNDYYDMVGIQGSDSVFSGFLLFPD

GGGAGGACGAUGCGGNNNNNNNNNNNNNNNNNNNNNNNNNNNNNNNNNNNNNNNNNNNNNNNNNNCAGACGACUCGCCCGA [random 50N7 2'-NH2 RNA pool]
Kd: 2300 nM

From patent US6140490
